According to the supplement of paper PMC7125110:
± gives the standard error. For part of these data: This sample holds only a part of the variants without activity.

B1: glmS ribozyme (parent)
chain: AUAAAAGCGCCAGAACUACAGAAAUGUAGUUGACGAGGAGGAGGUUUAUCGAAUUUUCGGCGGAUGCCUCCAAA

Tests used:
Settings in all cases: with glucosamine-6-phosphate
glucosamine-6-phosphate [1] = variants of: B1; experiment: kcat; higher = faster cleavage; RNA array
Summary of the method: (§1)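 Barcoded ribozyme variants were transcribed in situ on sequenced MiSeq chips by E. coli RNA polymerase. At 37 °C, a hybridised Cy3 probe tracked them while glucosamine-6-phosphate (40 μM to 10 mM) in HEPES/KCl/Mg(OAc)2 buffer flowed in and tiles were imaged over ~14 h. Per-tile medians of signals normalised to baseline and to non-cleaving reference variants were fit to one- or two-exponential decays, giving kobs. kcat and KM came from weighted Michaelis–Menten fits across concentrations.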

glucosamine-6-phosphate [2] = variants of: B1; experiment: KM; higher = weaker cofactor use; RNA array
Summary of the method: as §1

glucosamine-6-phosphate [3] = variants of: B1; experiment: self-cleavage kobs at 40 uM GlcN6P; higher = faster cleavage; RNA array
Summary of the method: as §1

glucosamine-6-phosphate [4] = variants of: B1; experiment: self-cleavage kobs at 160 uM GlcN6P; higher = faster cleavage; RNA array
Summary of the method: as §1

glucosamine-6-phosphate [5] = variants of: B1; experiment: self-cleavage kobs at 640 uM GlcN6P; higher = faster cleavage; RNA array
Summary of the method: as §1

glucosamine-6-phosphate [6] = variants of: B1; experiment: self-cleavage kobs at 2500 uM GlcN6P; higher = faster cleavage; RNA array
Summary of the method: as §1

glucosamine-6-phosphate [7] = variants of: B1; experiment: self-cleavage kobs at 10000 uM GlcN6P; higher = faster cleavage; RNA array
Summary of the method: as §1

Variant	kcat (glucosamine-6-phosphate [1]) [s⁻¹]	KM (glucosamine-6-phosphate [2]) [mM]	self-cleavage kobs at 40 uM GlcN6P (glucosamine-6-phosphate [3]) [s⁻¹]	self-cleavage kobs at 160 uM GlcN6P (glucosamine-6-phosphate [4]) [s⁻¹]	self-cleavage kobs at 640 uM GlcN6P (glucosamine-6-phosphate [5]) [s⁻¹]	self-cleavage kobs at 2500 uM GlcN6P (glucosamine-6-phosphate [6]) [s⁻¹]	self-cleavage kobs at 10000 uM GlcN6P (glucosamine-6-phosphate [7]) [s⁻¹]
AUAAAAGCGCCAUAACUACAGAAAUGUAGUUGACGAGGAGGAGGUUUAUGGCAUUUUCGGCGGAUGCCUCCAAA [G13U C50G A52C]	1.8e-05 ± 3e-06						
AUAAAAGCGCCAGCACUACAGAAAUGUAGUUGACGAGGAGGAGGUUUAUCGAUUUUUCGGCGGAUGCCUCCAAA [A14C A53U]	0.00451 ± 0.00085	2.93 ± 0.79	7.8e-05 ± 7.6e-06	0.000184 ± 2.7e-05	0.000737 ± 0.00012	0.00214 ± 0.00026	0.0035 ± 0.00029
AUAAAAGCGCCAGCACUACAGAAAUGUAGAUGACGAGGAGGAGGUUUAUCGAAUUUUCGGCGGAUGCCUCCAAA [A14C U30A]	0.00104 ± 0.00011	2.71 ± 0.48		6.84e-05 ± 2e-05	0.000182 ± 3.9e-05	0.000568 ± 0.00017	0.000813 ± 0.00013
AUAAAAGCGCCAGCACUACAGAAAUGUAGUUGACGAGGAGGAGGUUUAUCGAAUUUUCGGCGGAUGCCUCAAAA [A14C C71A]	0.00106 ± 0.00051		3.61e-05 ± 1.7e-05	0.000121 ± 3.2e-05	0.000194 ± 3.2e-05	0.000353 ± 5.6e-05	0.000984 ± 0.00013
AUAAAAGCGCCAUAACUACAGAAAUGUAGUUGACGAGGAGAAGGUUUAUCGAAUUUUCGGCGGAUGCCUCCAAA [G13U G41A]	5.17e-05 ± 3.4e-06	3.54 ± 0.6				2.17e-05 ± 8.2e-06	3.81e-05 ± 9.2e-06
AUAAAAGCGCCAUAAUUACAGAAAUGUAGUUGACGAGGAGGAGGUUUAUCGAAUUUUCGGCGGAUGCCUCCAAA [G13U C16U]	0.00286 ± 0.00057	3.43 ± 1	4.83e-05 ± 1.1e-05	0.000115 ± 2.9e-05	0.0004 ± 6.9e-05	0.00139 ± 0.00026	0.0021 ± 0.0003
AUAAAAGCGCCAUAAAUACAGAAAUGUAGUUGACGAGGAGGAGGUUUAUCGAAUUUUCGGCGGAUGCCUCCAAA [G13U C16A]	0.000283 ± 1.2e-05	4.34 ± 0.37			3.79e-05 ± 1.2e-05	0.0001 ± 2.2e-05	0.000198 ± 2.6e-05
AUAAAAGCGCCAUAAGUACAGAAAUGUAGUUGACGAGGAGGAGGUUUAUCGAAUUUUCGGCGGAUGCCUCCAAA [G13U C16G]	0.000981 ± 0.00012	5.17 ± 0.95			0.000112 ± 1.7e-05	0.000305 ± 6e-05	0.000653 ± 0.0001
AUAAAAGCGCCAUAACUACAGAAAUGUAGUUGACGAGGAGGAGGUUUAUCGAAUUUUCGGCGGAUGCCUCGAAA [G13U C71G]	5.14e-05 ± 2.7e-06	0.155 ± 0.074			3.7e-05 ± 9e-06	5.35e-05 ± 1e-05	5.01e-05 ± 5.6e-06
AUAAAAGCGCCAGCACUACAGAAAUGUAGUUGACGAGGAGGAGGUUUUUCGAAUUUUCGGCGGAUGCCUCCAAA [A14C A48U]	5.62e-05 ± 5.4e-06	3.17 ± 1.2					4.26e-05 ± 7.7e-06
AUAAAAGCGCCAGCACUACAGAAAUGUAGUUGCCGAGGAGGAGGUUUAUCGAAUUUUCGGCGGAUGCCUCCAAA [A14C A33C]	< 1e-05		< 1e-05		< 1e-05		
AUAAAAGCGCCAGCAAUACAGAAAUGUAGUUGACGAGGAGGAGGUUUAUCGAAUUUUCGGCGGAUGCCUCCAAA [A14C C16A]	6.62e-05 ± 7.2e-06				2.75e-05 ± 1.3e-05	6.73e-05 ± 1.1e-05	5.95e-05 ± 6.9e-06
AUAAAAGCGCCAUAACUACAGAAAUGUAUUUGACGAGGAGGAGGUUUAUCGAAUUUUCGGCGGAUGCCUACAAA [G13U G29U C70A]	3.94e-05 ± 1.3e-05					4.33e-05 ± 1.9e-05	
AUAAAAGCGCCAGCACUACAGAAAUGUAGUUGACGAGGAAGAGGUUUAUCGAAUUUUCGGCGGAUGCCUCCAAA [A14C G40A]	0.00106 ± 0.00042		3.61e-05 ± 8.7e-06	8.2e-05 ± 1.6e-05	0.000371 ± 5.8e-05	0.000306 ± 8.2e-05	0.00112 ± 0.00011
AUAAAAGCGCCAUAACUACAGAAAUGUAGUUGACGAGGAGGAGGUUUAUCGAAAUUUCGGCGGAUGCCUCCAAA [G13U U54A]	0.00184 ± 0.00033	2.69 ± 0.77	4.3e-05 ± 9.5e-06	0.000103 ± 1.6e-05	0.000283 ± 5.5e-05	0.00105 ± 0.00017	0.00144 ± 0.00015
AUAAAAGCGCCAUAACUACAGAAAUGUAGUUGACGAGGAGGAGGUUUAUCGAAUUUUUGGCGGAUGGCUCCAAA [G13U C58U C67G]	2.59e-05 ± 5.8e-06						
AUAAAAGCGCCAGCACUACAGAAAUGUAGUUGACGAGGAGGAGGUUUAUCGAAUUUUCGACGGAUGCCUCCAAA [A14C G60A]	< 1e-05		< 1e-05		< 1e-05		
